# In patent US20130129725A1 (Amgen, published 2013):
# T1: hu-FGFR1c-His (human, UniProt P11362 22-376)
# T1 construct: also called human FGFR1c; not shown: His tag
# T1 sequence: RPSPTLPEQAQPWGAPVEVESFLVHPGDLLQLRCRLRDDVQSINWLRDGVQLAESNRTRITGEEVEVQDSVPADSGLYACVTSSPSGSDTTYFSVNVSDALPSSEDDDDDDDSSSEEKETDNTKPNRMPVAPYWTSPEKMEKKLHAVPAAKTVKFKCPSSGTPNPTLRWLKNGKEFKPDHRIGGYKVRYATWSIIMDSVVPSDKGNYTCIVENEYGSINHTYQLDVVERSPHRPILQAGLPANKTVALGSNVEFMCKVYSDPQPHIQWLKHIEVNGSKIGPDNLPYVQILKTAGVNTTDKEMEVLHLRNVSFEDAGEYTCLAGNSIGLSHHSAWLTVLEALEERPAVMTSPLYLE
# Target: T1, hu-FGFR1c-His
# Experiment: ELISA (Example 10), antigen on plate, anti-hu-Fc-HRP detection (FIG. 13)
# Protocol: Biotin-hu-β-Klotho-His, biotin-mu-βKlotho-His, hu-FGFR1c-His, and mu-FGFR1c-Fc were expressed and purified. Anti-Fc-HRP was purchased from Thermo Fisher Scientific (Rockford, Ill.). Neutravidin 96 well plates (Thermo Fisher Scientific; Rockford, Ill.) were coated with 2 μg/ml biotin-hu-β-Klotho-His or biotin-mu-β-Klotho-His in PBS (Invitrogen; Carlsbad, Calif.). Maxisorp 96 well plates (Thermo Fisher Scientific; Rockford, Ill.) were coated with 2 μg/ml hu-FGFR1c-His or mu-FGFR1c-Fc in PBS. Plates were then incubated at 4° C. overnight. Plates were blocked in 2% milk-PBS at room temperature for 1 hour. Each well was then incubated 1 hour with samples diluted in 2% milk-PBS. Plates were washed 3 times with 300 μl PBS/0.1% Tween20 (Invitrogen; Carlsbad, Calif. and Sigma-Aldrich; St. Louis, Mo.). Anti-hu-Fc-HRP was diluted 1:10000 in 2% milk-PBS and added to each well. Plates were again washed 3 times with 300 μl PBS/0.1% Tween20. Lumiglo reagent (KPL; Gaithersburg, Md.) was added and luminescence was measured (Perkin Elmer; Waltham, Mass.).
row,binding result,Binder
1,binds,"1A2-Rm26 (bispecific antibody, human IgG1, kappa, N297Q, V domains shown, also called H1-Rm26) VH: not shown VL: DIVMTQTPLSSPVTLGQPASISCRSSQSLVYSDGNTYLSWLQQRPGQPPRLLIYKISNRFSGVPDRFSGSGAGTDFTLKISRVEADDVGIYYCMQAIEFPWTFGQGTQVEIKR"
2,binds,"2G10-Rm26 (bispecific antibody, human IgG1, lambda, N297Q, also called H2-Rm26) heavy: not shown light: QSVLTQPPSVSAAPGQKVTVSCSGSSSNIGNNYVSWYQQLPGTAPKLLIYDNNKRPSGIPDRFSGSKSGTSATLGITGLQTGDEAEYYCGTWDSSLSVVAFGGGTKLTVLGQPKANPTVTLFPPSSEELQANKATLVCLISDFYPGAVTVAWKADGSPVKAGVETTKPSKQSNNKYAASSYLSLTPEQWKSHRSYSCQVTHEGSTVEKTVAPTECS"
3,binds,"2G10-Rm40 (bispecific antibody, human IgG1, lambda, N297Q, also called H2-Rm40) heavy: not shown light: QSVLTQPPSVSAAPGQKVTVSCSGSSSNIGNNYVSWYQQLPGTAPKLLIYDNNKRPSGIPDRFSGSKSGTSATLGITGLQTGDEAEYYCGTWDSSLSVVAFGGGTKLTVLGQPKANPTVTLFPPSSEELQANKATLVCLISDFYPGAVTVAWKADGSPVKAGVETTKPSKQSNNKYAASSYLSLTPEQWKSHRSYSCQVTHEGSTVEKTVAPTECS"

# Target: T1, hu-FGFR1c-His
# Experiment: ELISA (Example 10), antigen on plate (FIG. 13)
row,binding result,Binder
1,binds,YQAWGYYV [SR4]
2,binds,HFKCGMGLFECADP [Rm40]
3,binds,EWYCGVLFNCQQ [Rm26]
